The values that follow come from article PMC12206513 (Molecular Biology of the Cell, 2025).

The target of assay [1] is His6-importin α-CyPet / S-His6-importin β (UniProt P52292). Put plainly: FRET or BRET.
In assay [2] the target is GFP-XCTK2 (full-length, wild type) (Xenopus) (UniProt P79955). Put plainly: co-sedimentation.
For assay [3], the target named is 6HisGFP-XCTK2-MBD2^mut (Xenopus) (UniProt P79955). Put plainly: co-sedimentation.
The target in assay [4] is doubly stabilized microtubules (GMPCPP and paclitaxel) polymerized from cycled bovine tubulin (bovine, UniProt Q6B856 1-445). Put plainly: co-sedimentation.

Residue numbers refer to the chain shown, from its start.

Sequence of GFP-XCTK2 (full-length, wild type) (Xenopus) (P79955 whole entry): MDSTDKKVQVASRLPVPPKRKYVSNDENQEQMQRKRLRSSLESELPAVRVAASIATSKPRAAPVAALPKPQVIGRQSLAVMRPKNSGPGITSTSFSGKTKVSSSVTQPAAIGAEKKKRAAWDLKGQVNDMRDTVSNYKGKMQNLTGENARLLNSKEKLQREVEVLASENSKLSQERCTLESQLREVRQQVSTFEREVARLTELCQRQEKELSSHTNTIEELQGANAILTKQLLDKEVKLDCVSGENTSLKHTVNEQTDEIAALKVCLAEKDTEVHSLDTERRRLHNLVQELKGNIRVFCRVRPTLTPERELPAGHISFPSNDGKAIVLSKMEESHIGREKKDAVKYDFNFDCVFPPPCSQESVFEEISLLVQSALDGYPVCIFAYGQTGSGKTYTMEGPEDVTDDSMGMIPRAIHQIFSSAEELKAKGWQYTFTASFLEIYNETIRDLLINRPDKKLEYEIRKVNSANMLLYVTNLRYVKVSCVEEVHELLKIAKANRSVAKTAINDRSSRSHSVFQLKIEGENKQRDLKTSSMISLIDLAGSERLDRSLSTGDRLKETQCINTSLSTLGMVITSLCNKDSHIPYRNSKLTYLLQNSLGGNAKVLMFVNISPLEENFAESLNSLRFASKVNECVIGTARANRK

Turning to “YPet-Tail C3 (from UniProt P79955 80-120) (domain or fragment)”, the fold higher apparent Kd than YPet-Tail in assay [1] amounted to 8 fold. Consider “YPet-Tail C2 (from UniProt P79955 62-120) (domain or fragment)”, for which the fold higher apparent Kd than YPet-Tail in assay [1] was 8 fold. Consider “importin α-His6 / S-His6-importin β (from UniProt P52292 1-529; Q14974 1-876) (complex)”, for which the results for the percent reduction of MT binding by 0.4 µM importin α/β in assay [2] and in assay [3] were 64% and 43%, respectively.

B1: YPet-Tail C2 (domain or fragment, Xenopus, UniProt P79955 62-120, looked up)
chain: APVAALPKPQVIGRQSLAVMRPKNSGPGITSTSFSGKTKVSSSVTQPAAIGAEKKKRAA
Regarding B1, in assay [4], the “stoichiometry N” value amounted to 1.1 per tubulin dimer.

B2: YPet-Tail N3 (domain or fragment, Xenopus, UniProt P79955 2-79, looked up)
chain: DSTDKKVQVASRLPVPPKRKYVSNDENQEQMQRKRLRSSLESELPAVRVAASIATSKPRAAPVAALPKPQVIGRQSLA
B2: in assay [4], the “fold higher apparent MT affinity than YPet-Tail C2” value was around 2 fold and the “stoichiometry N” value amounted to 1.1 per tubulin dimer.

B3: YPet-Tail N3-MBD1^mut (domain or fragment)
chain: B2 chain with K18A, R19A, K20A, R33A, K34A, R35A
With B3, the “fold higher Kd than YPet-Tail N3” value in assay [4] was 10 fold.

One may read the stoichiometry N as the number of molecules, sites or subunits per partner or assembly.
